Target: T1, human CD137 on transfected CHO cells (CHO-huCD137) (human)
T1 construct: domain: transmembrane and intracellular part
Experiment: flow cytometry on CHO-huCD137 cells; 95% confidence interval of the EC50
Procedure: Binding and EC50 was determined using flow cytometric of CHO cells transfected with human CD137, cynomolgus CD137 or empty vector. The extracellular part of human or cynomolgus CD137 was fused to the transmembrane and intracellular part of human CD40 and cloned into pcDNA3.1. The vector was subsequently stably transfected into CHO cells. […] CD137-transfected and empty vector-transfected cells were incubated with CD137 antibodies for at least 1 h at 4° C. to saturate the binding. In order to minimize antibody internalization, 0.05% sodium azide was used in the incubation buffer and all work was performed on ice. The CD137 antibodies were detected using PE-conjugated anti-hIgG antibody (109-115-098, Jackson Immunoresearch laboratories), incubated for 30 min at 4° C. Directly after staining the cells were fixed with a paraformaldehyde solution (10× concentrate BD CellFIX, BD biosciences #340181). Cells were analyzed by flow cytometry using FACSVerse (BD Biosciences). The median fluorescence intensity (MFI) for each sample was determined and the dose response data was analysed using Graph Pad Prism.
MFI data was normalized for each antibody, where 0% is defined as the lowest value and 100% is the highest value in the dose titration for each antibody.

T1 sequence (P25942 other isoform, or with tags, fused parts or gaps limits assumed): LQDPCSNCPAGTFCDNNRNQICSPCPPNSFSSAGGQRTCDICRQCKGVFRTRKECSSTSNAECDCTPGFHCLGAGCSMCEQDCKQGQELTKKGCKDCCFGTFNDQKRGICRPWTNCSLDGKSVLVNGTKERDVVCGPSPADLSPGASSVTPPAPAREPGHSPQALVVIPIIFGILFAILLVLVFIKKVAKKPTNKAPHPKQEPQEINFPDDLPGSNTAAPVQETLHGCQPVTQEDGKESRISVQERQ

EC50: 0.23 to 0.34 nM
B1: 1630/1631 (antibody, human IgG4 S228P, kappa, V domains shown)
VH: EVQLLESGGGLVQPGGSLRLSCAASGFTFGYSYMSWVRQAPGKGLEWVSSIGSGSSYTYYADSVKGRFTISRDNSKNTLYLQMNSLRAEDTAVYYCARVYSSPGIDYWGQGTLVTVSS
VL: DIQMTQSPSSLSASVGDRVTITCRASQSISSYLNWYQQKPGKAPKLLIYAASSLQSGVPSRFSGSGSGTDFTLTISSLQPEDFATYYCQQYYTWVPFTFGQGTKLEIKR
notes: the format in each assay is not restated
